# B1: Antiviral innate immune response receptor RIG-I (Homo sapiens), O95786 (parent)
# chain: MTTEQRRSLQAFQDYIRKTLDPTYILSYMAPWFREEEVQYIQAEKNNKGPMEAATLFLKFLLELQEEGWFRGFLDALDHAGYSGLYEAIESWDFKKIEKLEEYRLLLKRLQPEFKTRIIPTDIISDLSECLINQECEEILQICSTKGMMAGAEKLVECLLRSDKENWPKTLKLALEKERNKFSELWIVEKGIKDVETEDLEDKMETSDIQIFYQEDPECQNLSENSCPPSEVSDTNLYSPFKPRNYQLELALPAMKGKNTIICAPTGCGKTFVSLLICEHHLKKFPQGQKGKVVFFANQIPVYEQQKSVFSKYFERHGYRVTGISGATAENVPVEQIVENNDIIILTPQILVNNLKKGTIPSLSIFTLMIFDECHNTSKQHPYNMIMFNYLDQKLGGSSGPLPQVIGLTASVGVGDAKNTDEALDYICKLCASLDASVIATVKHNLEELEQVVYKPQKFFRKVESRISDKFKYIIAQLMRDTESLAKRICKDLENLSQIQNREFGTQKYEQWIVTVQKACMVFQMPDKDEESRICKALFLYTSHLRKYNDALIISEHARMKDALDYLKDFFSNVRAAGFDEIEQDLTQRFEEKLQELESVSRDPSNENPKLEDLCFILQEEYHLNPETITILFVKTRALVDALKNWIEGNPKLSFLKPGILTGRGKTNQNTGMTLPAQKCILDAFKASGDHNILIATSVADEGIDIAQCNLVILYEYVGNVIKMIQTRGRGRARGSKCFLLTSNAGVIEKEQINMYKEKMMNDSILRLQTWDEAVFREKILHIQTHEKFIRDSQEKPKPVPDKENKKLLCRKCKALACYTADVRVIEECHYTVLGDAFKECFVSRPHPKPKQFSSFEKRAKIFCARQNCSHDWGIHVKYKTFEIPVIKIESFVVEDIATGVQTLYSKWKDFHFEKIPFDPAEMSK
# partner: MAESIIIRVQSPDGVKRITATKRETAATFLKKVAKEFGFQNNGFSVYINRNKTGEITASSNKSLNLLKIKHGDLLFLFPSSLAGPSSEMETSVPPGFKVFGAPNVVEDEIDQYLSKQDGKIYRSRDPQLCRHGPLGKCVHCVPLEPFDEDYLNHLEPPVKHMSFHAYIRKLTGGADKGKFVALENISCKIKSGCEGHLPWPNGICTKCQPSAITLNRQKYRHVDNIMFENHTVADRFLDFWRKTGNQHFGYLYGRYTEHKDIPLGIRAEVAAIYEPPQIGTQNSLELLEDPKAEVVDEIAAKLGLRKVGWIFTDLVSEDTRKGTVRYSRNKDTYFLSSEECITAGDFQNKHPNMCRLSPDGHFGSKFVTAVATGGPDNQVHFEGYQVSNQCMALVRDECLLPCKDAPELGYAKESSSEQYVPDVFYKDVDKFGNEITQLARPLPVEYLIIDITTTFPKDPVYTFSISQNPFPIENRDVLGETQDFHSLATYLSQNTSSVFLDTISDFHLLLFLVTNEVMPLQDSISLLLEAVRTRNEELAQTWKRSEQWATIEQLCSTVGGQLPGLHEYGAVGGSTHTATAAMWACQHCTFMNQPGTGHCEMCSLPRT
# Variants of: B1
# Conditions: with npl4_human NPLOC4, Q8TAT6
row,Variant,effect of a mutation on the interaction
1,K181R,with no effect
2,T170E;K172R,decreasing interaction strength
3,K172R,decreasing interaction strength

# — IntAct's records for PubMed 26471729
